Biological target: T1, J-binding protein 1 (JBP1) (Crithidia fasciculata) (UniProt Q9U6M2)
T1 sequence: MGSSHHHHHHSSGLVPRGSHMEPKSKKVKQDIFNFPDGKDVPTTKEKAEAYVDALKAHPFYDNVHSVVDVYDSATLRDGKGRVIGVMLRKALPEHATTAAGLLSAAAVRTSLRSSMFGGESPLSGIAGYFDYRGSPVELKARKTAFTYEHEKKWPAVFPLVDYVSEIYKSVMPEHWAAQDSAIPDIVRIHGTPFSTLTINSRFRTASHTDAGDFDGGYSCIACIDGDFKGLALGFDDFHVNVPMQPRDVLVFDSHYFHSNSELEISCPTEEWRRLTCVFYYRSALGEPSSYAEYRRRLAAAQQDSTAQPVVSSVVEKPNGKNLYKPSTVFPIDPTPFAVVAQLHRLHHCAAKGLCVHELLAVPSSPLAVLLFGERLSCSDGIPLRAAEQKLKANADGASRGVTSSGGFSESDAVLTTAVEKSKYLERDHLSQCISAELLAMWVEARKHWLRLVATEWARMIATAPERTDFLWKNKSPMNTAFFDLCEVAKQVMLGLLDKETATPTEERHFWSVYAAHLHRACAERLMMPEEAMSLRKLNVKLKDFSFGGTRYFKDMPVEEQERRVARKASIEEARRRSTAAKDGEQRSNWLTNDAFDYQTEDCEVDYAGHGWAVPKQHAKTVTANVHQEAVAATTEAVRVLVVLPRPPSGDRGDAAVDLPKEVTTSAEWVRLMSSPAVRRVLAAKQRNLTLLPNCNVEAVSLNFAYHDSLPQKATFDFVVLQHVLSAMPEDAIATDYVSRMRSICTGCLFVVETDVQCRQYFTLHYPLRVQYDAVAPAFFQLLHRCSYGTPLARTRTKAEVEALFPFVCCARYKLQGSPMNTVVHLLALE
Test: pulldown
Conditions: beta-glucosyl-5hmC in place of all C (outside primers); 132 ng JBP1 beads, 10 ng DNA, 150 mM NaCl, 10 mM Tris pH 8.0, 2 mM EDTA, room temperature

pUC18 2.7 kb PCR product, beta-glu-5hmC
binding signal (% DNA pulled down): < 6

Source: US9677128
